Laboratory results as given in paper PMC3427372, “Proteomic Analysis Reveals New Cardiac-Specific Dystrophin-Associated Proteins” (PLoS ONE, 2012).

B1: β1-Syntrophin (natural protein, UniProt Q99L88 1-537, looked up)
chain: MAVAAAAVAAPAGGGGARAQRSGLLEVLVRDRWHKVLVNLSEDALVLSCEEGAAAYNGIGAATNGSFCRGSGTGHPVPGVAQAPDSPAGVRTAFTDLPEQVPESISNQKRGVKVLKQELGGLGISIKGGKENKMPILISKIFKGLAADQTQALYVGDAILSVNGADLRDATHDEAVQALKRAGKEVLLEVKYMREATPYVKKGSPVSEIGWETPPPESPRLGGGSAEPLSSQSFSFHRDRKSIPLKMCYVTRNMTLADPENRQLEIHSPDAKHTVILRSKDSATAQAWFSAIHSNAGDLLTRVVADIREQLGKTGIAGSREIRHLGWLAEKVPGESEKQWKPALVVLTEKDLLIYDSMPRRKEAWFSPVHSYPLLATRLVHSGPGKGSPQAGMDLSFATRTGTKQGIETHLFRAEISRDLSHWTRSIVQGCHNSAELTAEITTACTYRNQECRLTIHYDNGFSISTEPQDGAFPKTIIQSPYEKLKMSSDDGIRMLYLDFGGKEGEIQLDLHSCPKPIVFIIHSFLSAKITRLGLVA
notes: β1-syntrophin, mouse; source: endogenous, mouse cardiac ventricle and skeletal muscle (quadriceps) lysate
B2: α1-dystrobrevin (natural protein, UniProt Q9D2N4 1-746, looked up)
chain: MIEDSGKRGNTMAERRQLFAEMRAQDLDRIRLSTYRTACKLRFVQKKCNLHLVDIWNVIEALRENALNNLDPNIELNVARLEAVLSTIFYQLNKRMPTTHQIHVEQSISLLLNFLLAAFDPEGHGKISVFAVKMALATLCGGKIMDKLRYIFSMISDSSGVMVYGRYDQFLREVLKLPTAVFEGPSFGYTEQSARSCFSQQKKVTLNGFLDTLMSDPPPQCLVWLPLLHRLANVENVFHPVECSYCHSESMMGFRYRCQQCHNYQLCQDCFWRGHAGGSHSNQHQMKEYTSWKSPAKKLTNALSKSLSCASSREPLHPMFPDQPEKPLNLAHIVPPRPVTSMNDTLFSHSVPSSGSPFITRSSPPKDSEVEQNKMLARAAPAFLKGRGIQYSLNVADRLADEHVLIGLYVNMLRNDPPCMLESSNRLDEEHRLIARYAARLAAESSSSQPTQQRSAPDISFTIDANKQQRQLIAELENKNREILQEIQRLRVEHEQASQPTPEKAQQNPTLLAELRLLRQRKDELEQRMSALQESRRELMVQLEGLMKLLKEEELKQGTQGASSPRSSPSHTISRPIPMPIRSASACPTPTHTPQDSLTGVGGDVQEAFAQSSRRNLRSDLLVAADSITNTMSSLVKELNSEVASETESTVDSEFSRPQFEDLAPSPTSEKAFLAQIHSRKPGYIHGGAASTTHGDMVPEDGDPYTQPEDGNYENESVRQLENELQLEEYLKQKLQDEAYQVSLQG
notes: α-dystrobrevin splice variant α1, mouse; told apart on blots by molecular weight with a pan α-dystrobrevin antibody; also called DTNA1; source: endogenous, mouse cardiac ventricle and skeletal muscle (quadriceps) lysate

Molecular target: T1, Dystrophin (mouse (endogenous in cardiac and …, UniProt P11531 1-3678))
T1 construct: dystrophin, mouse, the large (427 kDa) full-length form of muscle cells; also called full-length dystrophin; full length dystrophin; source: endogenous, mouse cardiac ventricle and skeletal muscle (quadriceps) lysate
T1 sequence (P11531 whole entry): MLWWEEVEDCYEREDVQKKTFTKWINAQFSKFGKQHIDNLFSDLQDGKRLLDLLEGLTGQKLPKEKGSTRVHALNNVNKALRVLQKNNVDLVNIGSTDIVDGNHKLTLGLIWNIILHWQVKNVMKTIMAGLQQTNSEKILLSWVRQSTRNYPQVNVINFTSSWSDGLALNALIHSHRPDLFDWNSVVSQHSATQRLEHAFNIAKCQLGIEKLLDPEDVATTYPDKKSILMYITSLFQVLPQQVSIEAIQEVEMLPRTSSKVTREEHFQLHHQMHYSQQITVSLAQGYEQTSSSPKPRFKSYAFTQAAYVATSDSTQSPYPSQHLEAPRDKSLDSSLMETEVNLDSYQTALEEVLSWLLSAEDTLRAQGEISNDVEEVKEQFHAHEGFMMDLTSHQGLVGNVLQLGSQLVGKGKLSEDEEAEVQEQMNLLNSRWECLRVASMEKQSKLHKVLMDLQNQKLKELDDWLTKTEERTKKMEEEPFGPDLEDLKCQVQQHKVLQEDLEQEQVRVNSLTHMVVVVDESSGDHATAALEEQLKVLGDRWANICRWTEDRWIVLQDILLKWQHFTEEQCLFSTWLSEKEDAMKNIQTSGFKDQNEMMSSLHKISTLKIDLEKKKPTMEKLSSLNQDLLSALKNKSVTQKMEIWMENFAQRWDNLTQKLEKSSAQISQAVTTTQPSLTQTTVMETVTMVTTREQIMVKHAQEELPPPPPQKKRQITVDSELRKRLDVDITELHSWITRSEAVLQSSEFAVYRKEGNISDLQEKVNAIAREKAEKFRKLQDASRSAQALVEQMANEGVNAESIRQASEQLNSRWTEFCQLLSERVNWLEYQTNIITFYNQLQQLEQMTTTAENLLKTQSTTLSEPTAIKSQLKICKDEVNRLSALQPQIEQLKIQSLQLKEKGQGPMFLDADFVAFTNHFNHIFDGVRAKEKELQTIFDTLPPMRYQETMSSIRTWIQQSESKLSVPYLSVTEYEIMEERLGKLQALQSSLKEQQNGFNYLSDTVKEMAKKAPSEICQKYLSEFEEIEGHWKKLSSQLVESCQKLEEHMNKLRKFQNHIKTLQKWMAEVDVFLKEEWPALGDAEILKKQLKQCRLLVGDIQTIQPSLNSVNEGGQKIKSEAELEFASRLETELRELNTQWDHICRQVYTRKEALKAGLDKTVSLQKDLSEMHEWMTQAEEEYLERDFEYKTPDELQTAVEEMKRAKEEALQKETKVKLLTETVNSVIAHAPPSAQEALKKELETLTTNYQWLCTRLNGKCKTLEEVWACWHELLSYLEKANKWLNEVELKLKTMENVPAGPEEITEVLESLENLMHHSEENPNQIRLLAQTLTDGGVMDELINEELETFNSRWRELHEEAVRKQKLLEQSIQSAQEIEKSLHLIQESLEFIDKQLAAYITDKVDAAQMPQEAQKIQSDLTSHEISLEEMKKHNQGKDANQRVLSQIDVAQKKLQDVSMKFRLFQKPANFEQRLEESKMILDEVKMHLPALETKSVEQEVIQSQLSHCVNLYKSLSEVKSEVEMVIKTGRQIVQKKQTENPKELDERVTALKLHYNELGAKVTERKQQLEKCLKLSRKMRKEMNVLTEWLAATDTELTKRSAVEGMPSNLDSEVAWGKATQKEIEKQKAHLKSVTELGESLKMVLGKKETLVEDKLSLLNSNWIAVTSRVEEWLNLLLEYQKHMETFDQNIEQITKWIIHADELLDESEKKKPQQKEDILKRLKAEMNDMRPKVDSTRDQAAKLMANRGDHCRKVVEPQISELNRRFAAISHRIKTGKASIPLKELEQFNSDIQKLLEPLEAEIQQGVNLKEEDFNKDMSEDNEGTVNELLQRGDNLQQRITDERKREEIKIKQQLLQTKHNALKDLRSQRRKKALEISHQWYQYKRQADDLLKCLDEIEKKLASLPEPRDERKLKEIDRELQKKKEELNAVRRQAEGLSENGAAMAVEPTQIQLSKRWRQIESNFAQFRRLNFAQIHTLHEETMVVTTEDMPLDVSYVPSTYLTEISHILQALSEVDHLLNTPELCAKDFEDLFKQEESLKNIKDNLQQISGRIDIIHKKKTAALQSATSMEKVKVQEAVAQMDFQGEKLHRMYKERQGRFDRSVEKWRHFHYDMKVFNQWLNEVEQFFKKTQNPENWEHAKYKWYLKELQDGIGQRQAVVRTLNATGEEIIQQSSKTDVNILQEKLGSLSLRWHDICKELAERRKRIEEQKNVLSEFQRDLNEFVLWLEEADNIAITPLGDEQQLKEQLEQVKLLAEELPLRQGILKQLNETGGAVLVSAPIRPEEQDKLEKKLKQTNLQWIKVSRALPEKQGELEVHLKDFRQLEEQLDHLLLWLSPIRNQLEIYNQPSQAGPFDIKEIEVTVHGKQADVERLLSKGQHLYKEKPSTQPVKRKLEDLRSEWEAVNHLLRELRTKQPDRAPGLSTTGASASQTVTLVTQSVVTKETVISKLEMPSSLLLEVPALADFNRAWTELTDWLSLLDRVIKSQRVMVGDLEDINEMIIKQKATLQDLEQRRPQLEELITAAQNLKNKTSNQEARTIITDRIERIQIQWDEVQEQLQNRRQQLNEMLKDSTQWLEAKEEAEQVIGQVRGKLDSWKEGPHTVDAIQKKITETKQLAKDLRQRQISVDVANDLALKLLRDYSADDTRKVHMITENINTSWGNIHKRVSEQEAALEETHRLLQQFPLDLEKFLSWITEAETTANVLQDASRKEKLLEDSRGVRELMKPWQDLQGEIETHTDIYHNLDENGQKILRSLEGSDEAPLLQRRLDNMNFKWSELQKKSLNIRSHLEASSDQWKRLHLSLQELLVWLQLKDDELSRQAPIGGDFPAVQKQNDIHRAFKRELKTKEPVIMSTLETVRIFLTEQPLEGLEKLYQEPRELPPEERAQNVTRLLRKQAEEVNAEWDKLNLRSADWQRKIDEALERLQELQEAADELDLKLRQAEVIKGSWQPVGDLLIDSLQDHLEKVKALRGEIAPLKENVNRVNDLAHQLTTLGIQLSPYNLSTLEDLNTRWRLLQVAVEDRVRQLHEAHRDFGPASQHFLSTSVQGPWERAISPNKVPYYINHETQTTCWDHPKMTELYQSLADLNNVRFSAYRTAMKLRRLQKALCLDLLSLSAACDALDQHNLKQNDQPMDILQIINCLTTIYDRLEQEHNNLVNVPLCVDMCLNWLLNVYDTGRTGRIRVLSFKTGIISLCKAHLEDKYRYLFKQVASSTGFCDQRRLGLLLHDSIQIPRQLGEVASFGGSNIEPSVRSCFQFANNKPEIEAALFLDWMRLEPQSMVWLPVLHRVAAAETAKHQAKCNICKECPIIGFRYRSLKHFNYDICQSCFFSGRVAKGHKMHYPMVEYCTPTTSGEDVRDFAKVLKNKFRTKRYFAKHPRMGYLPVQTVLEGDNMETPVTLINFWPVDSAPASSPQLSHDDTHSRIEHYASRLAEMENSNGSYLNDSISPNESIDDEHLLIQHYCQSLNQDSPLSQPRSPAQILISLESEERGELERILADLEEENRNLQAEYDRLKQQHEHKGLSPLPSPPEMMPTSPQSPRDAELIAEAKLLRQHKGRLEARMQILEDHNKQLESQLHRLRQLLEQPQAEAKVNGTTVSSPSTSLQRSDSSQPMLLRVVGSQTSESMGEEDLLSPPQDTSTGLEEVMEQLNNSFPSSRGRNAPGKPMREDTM
Assay: co-IP; DYS-IP (MANDYS1 cross-linked to protein G magnetic beads) from wild type mouse cardiac muscle lysate, 3 hr at 4°C, Western blot; controls IgG-IP and mdx
Conditions: partners not purified

fold less associated with dystrophin in cardiac than in skeletal muscle DYS-IPs | Binder
4 fold | B1
~5 fold | B2
